Data published in paper PMC11620640.
pKd: −log10 of the molar value.

How the values were obtained:
[1] = biological target: raccoon dog ACE2 (rdACE2), peptidase domain (PD), wild type (raccoon dog) (UniProt B4XEP4); assay: SPR
[2] = biological target: raccoon dog ACE2 (rdACE2), peptidase domain (PD), wild type (raccoon dog) (UniProt B4XEP4); assay: SPR; BIAcore […], 25°C, PBST (0.005% Tween-20 in PBS); […], single-cycle; 1:1 Langmuir model; […]
[3] = biological target: SARS-CoV-2 Alpha variant spike RBD (UniProt P0DTC2); assay: SPR

Row | Substance | fold decrease of affinity against PT RBD [1] | pKd [3] | also measured
1 | SARS-CoV-2 Omicron BA.2 spike RBD (from UniProt P0DTC2 319-541) (domain or fragment) | > 10 fold | – | –
2 | SARS-CoV-2 Omicron XBB spike RBD (from UniProt P0DTC2 319-541) (domain or fragment) | – | – | fold decrease of affinity against PT RBD [2]: 10 fold
3 | SARS-CoV-2 PT RBD K417N variant (from UniProt P0DTC2 319-541) (domain or fragment) | > 6 fold | – | –
4 | raccoon dog ACE2 (rdACE2), peptidase domain (PD), wild type (from UniProt B4XEP4) E38D | – | 7.91 | –
5 | raccoon dog ACE2 (rdACE2), peptidase domain (PD), wild type (from UniProt B4XEP4) L24Q | – | 7.37 | –
6 | raccoon dog ACE2 (rdACE2), peptidase domain (PD), wild type (from UniProt B4XEP4) R353K | – | 7.23 | –
